Reference: the supplement of paper PMC7877785
± gives the uncertainty stated by the source.

Assay: self-splicing fitness, log relative to wild type (ln ratio); higher = more splicing; Tetrahymena group I intron in knt gene, E. coli kanamycin selection, DiMSum; sequences stand for … in CUCUCU…GGAGGGAAAAGUUAUCAGGCAUGCACCUGGUAGCUAGUCUUUAAACCAAUAGAUUGCAUCGGUUUAAAAGGCAAGACCGUCAAAUUGCGGGAAAGGGGUCAACAGCCGUUCAGUACCAAGUCUCAGGGGAAACUUUGAGAUGGCCUUGCAAAGGGUAUGGUAAUAAGCUGACGGACAUGGUCCUAACCACGCAGCCAAGUCCUAAGUCAACAGAUCUUCUGUUGAUAUGGAUGCAGUUCACAGACUAAAUGUCGGUCGGGGAAGAUGUAUUCUUCUCAUAAGAUAUAGUCGGACCUCUCCUUAAUGGGAGCUAGCGGAUGAAGUGAUGCAACACUGGAGCCGCUGGGAACUAAUUUGUAUGCGAAAGUAUAUUGAUUAGUUUUGGAGUACUCGUGGUCG
How it was run: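 DiMSum derived fitness as the error-weighted combination of fold changes across replicates, kanamycin versus no kanamycin, normalised to wild type. E. coli BL21(DE3) held the library, which randomised all eight P1ex-region intron nucleotides within the knt kanamycin-resistance gene on pET-22b(+). Six replicate transformations grew overnight at 37°C or 30°C on LB agar with or without 25 μg/mL kanamycin, also containing 100 μg/mL carbenicillin, 50 μM IPTG and 0.2% rhamnose, and pooled colonies were amplicon-sequenced on an Illumina HiSeq 2500.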

ACCCAGCAAUAUUACGUUGA
self-splicing fitness (ln) (30 °C): -1.66 ± 0.073
self-splicing fitness (ln) (37 °C): -1.03 ± 0.075

ACCCAGCAAUAUUACGUUGU
self-splicing fitness (ln) (30 °C): -0.339 ± 0.043
self-splicing fitness (ln) (37 °C): -0.0259 ± 0.057

ACCGAGCAAUAUUACGAAGA
self-splicing fitness (ln) (30 °C): -3.11 ± 0.28
self-splicing fitness (ln) (37 °C): -2.54 ± 0.29

ACCGAGCAAUAUUACGACAC
self-splicing fitness (ln) (30 °C): -3.48 ± 0.38
self-splicing fitness (ln) (37 °C): -1.73 ± 0.26

ACCGAGCAAUAUUACGACUG
self-splicing fitness (ln) (30 °C): -2.73 ± 0.17
self-splicing fitness (ln) (37 °C): -1.04 ± 0.16

ACCGAGCAAUAUUACGAGUG
self-splicing fitness (ln) (30 °C): -2.82 ± 0.11
self-splicing fitness (ln) (37 °C): -1.49 ± 0.094

ACCGAGCAAUAUUACGAUGG
self-splicing fitness (ln) (30 °C): -2.27 ± 0.094
self-splicing fitness (ln) (37 °C): -1.39 ± 0.11

ACCGAGCAAUAUUACGCACC
self-splicing fitness (ln) (30 °C): -2.84 ± 0.22
self-splicing fitness (ln) (37 °C): -1.08 ± 0.21

ACCGAGCAAUAUUACGCCCU
self-splicing fitness (ln) (30 °C): -2.6 ± 0.25
self-splicing fitness (ln) (37 °C): 0.248 ± 0.21

ACCGAGCAAUAUUACGCGAU
self-splicing fitness (ln) (30 °C): -2.5 ± 0.14
self-splicing fitness (ln) (37 °C): -1.73 ± 0.14

ACCGAGCAAUAUUACGCGGA
self-splicing fitness (ln) (30 °C): -2.09 ± 0.1
self-splicing fitness (ln) (37 °C): -0.721 ± 0.089

ACCGAGCAAUAUUACGCUGU
self-splicing fitness (ln) (30 °C): -3.32 ± 0.17
self-splicing fitness (ln) (37 °C): -0.834 ± 0.13

ACCGAGCAAUAUUACGGACU
self-splicing fitness (ln) (30 °C): -0.27 ± 0.073
self-splicing fitness (ln) (37 °C): 0.614 ± 0.1

ACCGAGCAAUAUUACGGAUC
self-splicing fitness (ln) (30 °C): -3.86 ± 0.26
self-splicing fitness (ln) (37 °C): -1.95 ± 0.2

ACCGAGCAAUAUUACGGUAC
self-splicing fitness (ln) (30 °C): -2.82 ± 0.3
self-splicing fitness (ln) (37 °C): -2.46 ± 0.33

ACCGAGCAAUAUUACGGUGU
self-splicing fitness (ln) (30 °C): -2.88 ± 0.13
self-splicing fitness (ln) (37 °C): -2.15 ± 0.12

ACCGAGCAAUAUUACGGUUA
self-splicing fitness (ln) (30 °C): -1.33 ± 0.18
self-splicing fitness (ln) (37 °C): -1.85 ± 0.17

ACCGAGCAAUAUUACGUGGA
self-splicing fitness (ln) (30 °C): -2.84 ± 0.15
self-splicing fitness (ln) (37 °C): -2.99 ± 0.18

ACCGAGCAAUAUUACGUGUC
self-splicing fitness (ln) (30 °C): -3.24 ± 0.2
self-splicing fitness (ln) (37 °C): -3.04 ± 0.27

ACCGAGCAAUAUUACGUUAU
self-splicing fitness (ln) (30 °C): -3.78 ± 0.14
self-splicing fitness (ln) (37 °C): -2.6 ± 0.15

ACCGAGCAAUAUUACGUUCU
self-splicing fitness (ln) (30 °C): -2.38 ± 0.074
self-splicing fitness (ln) (37 °C): -1.01 ± 0.074

ACCGAGCAAUAUUACGUUUG
self-splicing fitness (ln) (30 °C): -2.86 ± 0.13
self-splicing fitness (ln) (37 °C): -2.19 ± 0.14

ACCUAGCAAUAUUACGAAGG
self-splicing fitness (ln) (30 °C): -2.16 ± 0.086
self-splicing fitness (ln) (37 °C): -1.85 ± 0.15

ACCUAGCAAUAUUACGACCC
self-splicing fitness (ln) (30 °C): -0.886 ± 0.2
self-splicing fitness (ln) (37 °C): -0.637 ± 0.31

ACCUAGCAAUAUUACGAGCA
self-splicing fitness (ln) (30 °C): -1.17 ± 0.1
self-splicing fitness (ln) (37 °C): -1.59 ± 0.14

ACCUAGCAAUAUUACGAGCG
self-splicing fitness (ln) (30 °C): -1.06 ± 0.085
self-splicing fitness (ln) (37 °C): -0.509 ± 0.097

ACCUAGCAAUAUUACGAUUC
self-splicing fitness (ln) (30 °C): -1.72 ± 0.083
self-splicing fitness (ln) (37 °C): -0.58 ± 0.097

ACCUAGCAAUAUUACGCAGG
self-splicing fitness (ln) (30 °C): -3.34 ± 0.23
self-splicing fitness (ln) (37 °C): -2.73 ± 0.26

ACCUAGCAAUAUUACGCAUC
self-splicing fitness (ln) (30 °C): -1.83 ± 0.072
self-splicing fitness (ln) (37 °C): -0.436 ± 0.078

ACCUAGCAAUAUUACGGACA
self-splicing fitness (ln) (30 °C): -0.384 ± 0.075
self-splicing fitness (ln) (37 °C): -0.189 ± 0.08

ACCUAGCAAUAUUACGGACC
self-splicing fitness (ln) (30 °C): -0.548 ± 0.16
self-splicing fitness (ln) (37 °C): 0.368 ± 0.17

ACCUAGCAAUAUUACGGCGA
self-splicing fitness (ln) (30 °C): -1.49 ± 0.12
self-splicing fitness (ln) (37 °C): -0.462 ± 0.11

ACCUAGCAAUAUUACGGGAG
self-splicing fitness (ln) (30 °C): -1.93 ± 0.072
self-splicing fitness (ln) (37 °C): -1.41 ± 0.088

ACCUAGCAAUAUUACGGGGU
self-splicing fitness (ln) (30 °C): -3.47 ± 0.16
self-splicing fitness (ln) (37 °C): -2.61 ± 0.17

ACCUAGCAAUAUUACGGUAC
self-splicing fitness (ln) (30 °C): -3.75 ± 0.37
self-splicing fitness (ln) (37 °C): -2.76 ± 0.26

ACCUAGCAAUAUUACGGUGC
self-splicing fitness (ln) (30 °C): -1.87 ± 0.074
self-splicing fitness (ln) (37 °C): -0.926 ± 0.092

ACCUAGCAAUAUUACGGUGU
self-splicing fitness (ln) (30 °C): -2.97 ± 0.1
self-splicing fitness (ln) (37 °C): -1.93 ± 0.12

ACCUAGCAAUAUUACGGUUG
self-splicing fitness (ln) (30 °C): -3.37 ± 0.13
self-splicing fitness (ln) (37 °C): -2.71 ± 0.17

ACCUAGCAAUAUUACGUCAC
self-splicing fitness (ln) (30 °C): -4.1 ± 0.18
self-splicing fitness (ln) (37 °C): -1.83 ± 0.2

ACCUAGCAAUAUUACGUCGC
self-splicing fitness (ln) (30 °C): -2.66 ± 0.18
self-splicing fitness (ln) (37 °C): -0.636 ± 0.15

ACCUAGCAAUAUUACGUCUG
self-splicing fitness (ln) (30 °C): -2.84 ± 0.2
self-splicing fitness (ln) (37 °C): -2.03 ± 0.15

ACCUAGCAAUAUUACGUUAC
self-splicing fitness (ln) (30 °C): -3.6 ± 0.21
self-splicing fitness (ln) (37 °C): -3.13 ± 0.23

ACCUAGCAAUAUUACGUUCG
self-splicing fitness (ln) (30 °C): -1.5 ± 0.078
self-splicing fitness (ln) (37 °C): -0.444 ± 0.096

ACGAAGCAAUAUUACGACAC
self-splicing fitness (ln) (30 °C): -2.4 ± 0.13
self-splicing fitness (ln) (37 °C): -0.952 ± 0.14

ACGAAGCAAUAUUACGACAU
self-splicing fitness (ln) (30 °C): -0.681 ± 0.011
self-splicing fitness (ln) (37 °C): -0.109 ± 0.032

ACGAAGCAAUAUUACGACCA
self-splicing fitness (ln) (30 °C): -0.752 ± 0.15
self-splicing fitness (ln) (37 °C): -0.848 ± 0.13

ACGAAGCAAUAUUACGACGA
self-splicing fitness (ln) (30 °C): -1.04 ± 0.097
self-splicing fitness (ln) (37 °C): -0.181 ± 0.12
